2 molecules from patent US20060141569A1, “Compositions and methods for the assay of G-protein coupled receptors and their ligands” (priority 2004, published 2006) can be followed below.

One may read the Kd as the equilibrium constant for the complex coming apart. A higher Kd goes with a looser complex. A word on the Ki: it is a dissociation constant, usually derived from enzyme kinetics or from competition with a known ligand.

The target in one experiment is T1, CB1 receptor (Homo sapiens, UniProt P21554).
T1 construct: ER export signal […]; expressed in transfected cells; host or cells: CHEM-1 (RBL-2H3) cells, pHS vector
T1 sequence (P21554 whole entry): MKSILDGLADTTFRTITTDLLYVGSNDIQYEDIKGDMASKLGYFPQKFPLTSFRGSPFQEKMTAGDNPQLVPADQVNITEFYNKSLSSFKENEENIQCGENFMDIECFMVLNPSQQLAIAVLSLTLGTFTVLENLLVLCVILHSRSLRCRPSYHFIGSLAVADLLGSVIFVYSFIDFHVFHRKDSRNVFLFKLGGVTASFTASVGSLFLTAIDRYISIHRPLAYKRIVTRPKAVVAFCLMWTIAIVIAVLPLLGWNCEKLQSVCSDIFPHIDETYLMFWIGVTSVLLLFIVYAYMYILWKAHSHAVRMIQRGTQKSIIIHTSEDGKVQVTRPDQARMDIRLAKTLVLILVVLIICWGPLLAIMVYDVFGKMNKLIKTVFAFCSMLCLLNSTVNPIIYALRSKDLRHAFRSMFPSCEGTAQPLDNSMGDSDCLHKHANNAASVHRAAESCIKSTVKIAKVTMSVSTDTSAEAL
Put plainly: CB1 receptor FLIPR dose response in CB1-transfected CHEM-1 cells. The format is cell-based. To be noted: pHS vector (FIG. 10D).

Experiment [1] has as its target T2, CXCR2 (Homo sapiens, UniProt P25025).
T2 construct: expressed in transfected cells; host or cells: CHO cells, pcDNA3 vector, crude membranes of stably transfected cells
T2 sequence (P25025 1-360): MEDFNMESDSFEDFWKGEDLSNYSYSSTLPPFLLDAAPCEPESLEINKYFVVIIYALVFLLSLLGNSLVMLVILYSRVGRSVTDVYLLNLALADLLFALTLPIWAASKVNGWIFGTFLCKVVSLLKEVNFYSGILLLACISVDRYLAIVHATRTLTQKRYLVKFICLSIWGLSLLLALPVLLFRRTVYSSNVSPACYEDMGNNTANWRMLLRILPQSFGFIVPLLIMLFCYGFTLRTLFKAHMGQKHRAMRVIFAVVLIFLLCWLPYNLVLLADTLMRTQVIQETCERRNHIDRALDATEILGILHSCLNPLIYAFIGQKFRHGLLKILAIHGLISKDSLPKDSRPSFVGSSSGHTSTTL
Kind of experiment: CXCR2 membrane radioligand (125I-Groα) saturation binding. The conditions noted are these: membranes of CHO cells transfected with CXCR2, pcDNA3 vector; 125I-Groα 0-2 nM (FIG. 7A). The method, then: FIG. 7A is a graph depicting CXCR2 membrane radioligand saturation binding for membranes of CHO cells transfected with CXCR2 encoded by the mammalian expression vector pcDNA3. Specifically, 5 μg of GPCR membrane preps were incubated with increasing concentrations (0-2 nM) of ^125I-labeled ligand Groα (PerkinElmer, Wellesley, Mass.) in the absence or presence of an excess amount of cold ligand Groα.
FIG. 7B is a graph depicting CXCR2 membrane radioligand saturation binding for membranes of CHEM-1 cells transfected with CXCR2 encoded by the expression vector pHS. Specifically, 5 μg of GPCR membrane preparation was incubated with increasing concentrations (0-2 nM) of ^125I-labeled ligand Groα (PerkinElmer, Wellesley, Mass.) in the absence or presence of an excess amount of cold ligand Groα.
1-5 μg/well of crude membrane protein was thawed and combined with 50,000 to 100,000 cpm of radioligand (2200 Ci/mmol) and cold competitors in assay buffer (50 mM Hepes, 5 mM MgCl2, 1 mM CaCl2, 0.2% BSA) for 2 hours at 25° C. Reactions were performed in 96-well GF/C glass fiber filter plates (PerkinElmer, Cat. No. 6005174, Wellesley, Mass.). […] The filter plate was then dried and counted on a Microbeta liquid scintillation counter (PerkinElmer, Wellesley, Mass.). […]

Experiment [2] deals with T2, CXCR2. Put plainly: CXCR2 membrane radioligand (125I-Groα) competition binding. To be noted: two site binding curve, FIG. 8A (pcDNA3/CHO membranes); 0.5 nM 125I-Groα; matches high affinity sites of FIG. 8B.
Procedure: After 2 hours of incubation at room temperature, membranes were harvested to a 96-well GF/C filter plate, dried and counted using a Microbeta counter.
1-5 μg/well of crude membrane protein was thawed and combined with 50,000 to 100,000 cpm of radioligand (2200 Ci/mmol) and cold competitors in assay buffer (50 mM Hepes, 5 mM MgCl2, 1 mM CaCl2, 0.2% BSA) for 2 hours at 25° C. Reactions were performed in 96-well GF/C glass fiber filter plates (PerkinElmer, Cat. No. 6005174, Wellesley, Mass.). Binding was terminated by adding 100 μl/well of wash buffer (50 mM Hepes, pH 7.4, 500 mM NaCl, 0.1% BSA) and aspiration through the plate on a cell harvester, followed by three 0.2 ml washes with wash buffer. The filter plate was then dried and counted on a Microbeta liquid scintillation counter (PerkinElmer, Wellesley, Mass.).

Procedure for CB1 receptor: FIG. 10D is a graph depicting the agonist-induced CB1 receptor FLIPR® dose response for CB1-transfected CHEM-1 cells using the pHS vector.
Cells (50,000/well) were seeded in a 96 well FLIPR® plate (clear bottom, black wall TC plate) the day before the experiment, and then loaded with fluorescent calcium dye Fluo-4 or Indo-1 (Molecular Probes) and incubated for 30 minutes at 37° C. in the dark with Pluronic F-127 and Probenecid in HBSS buffer (with Ca^2+ and Mg^2+). The cells were then washed twice with HBSS and read for calcium mobilization after the ligand addition on FLEX Station or FLIPR®. The loading efficiency and integrity of the Ca^2+ flux assay were assessed by comparing the signaling response to ionomycin treatment before and after each run.

In the case of `CCCCCCC(C)(C)c1ccc([C@@H]2C[C@H](O)CC[C@H]2CCCO)c(O)c1` [CP55940], the “agonist type (efficacy) in FLIPR dose response” value on CB1 receptor is “partial agonists”.

Groα showed a Kd with CXCR2 [1] of 0.148 nM. In the experiment with CXCR2 [2], this molecule returned a Ki of 0.22 nM.
